Source: patent US9518088B2, “Peptide-phospholipid conjugates” (Indiana University Research and Technology Corporation, priority 2011, dated 2016)
Like-named read-outs stand apart in the source and are kept apart here.

How the values were obtained:
[1] = Stability of the conjugates
[2] = Solubility in water / aqueous buffers
macrophages and T-cells = test: Affinity for macrophages and T-cells; assay type: cell-based
CD36 macrophage receptor = molecular target: T1, CD36 macrophage receptor (Mus musculus, UniProt Q08857); test: CD36 macrophage receptor binding competition assay (biotinylated CuOxLDL binding to J774 macrophages); parameters: species or system murine
T1 construct: endogenous in cells; host or cells: J774 murine macrophage cell line
T1 sequence (Q08857 whole entry): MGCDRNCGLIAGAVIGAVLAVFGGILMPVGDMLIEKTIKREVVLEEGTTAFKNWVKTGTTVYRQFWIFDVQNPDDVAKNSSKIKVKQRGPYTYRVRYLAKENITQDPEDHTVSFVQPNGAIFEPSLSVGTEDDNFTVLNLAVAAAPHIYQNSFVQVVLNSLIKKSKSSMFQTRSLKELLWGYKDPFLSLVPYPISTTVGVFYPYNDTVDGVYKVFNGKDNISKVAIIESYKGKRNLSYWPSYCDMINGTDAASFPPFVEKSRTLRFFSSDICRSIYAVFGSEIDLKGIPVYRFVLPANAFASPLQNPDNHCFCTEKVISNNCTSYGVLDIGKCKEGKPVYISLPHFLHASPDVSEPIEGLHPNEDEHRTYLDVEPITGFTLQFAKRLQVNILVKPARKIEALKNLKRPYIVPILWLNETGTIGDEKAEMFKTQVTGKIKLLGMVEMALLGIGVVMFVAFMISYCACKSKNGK
Source text: Data are given as relative light units (RLU) per 100 ms (milliseconds). The plot is a representative experiment chosen from among at least four experiments. […] Data are shown as mean±SD (Standard Deviation) of B/B0 from 2 independent experiments with triplicate determination. […] Data are shown as mean±SD of B/B0 from two independent experiments with triplicate determination. Data in FIG. 3B and FIG. 3C were produced in parallel experiments.
The fixed concentration of biotinylated CuOxLDL (1.8 pmol apoB/mL, corresponding 1 μg apoB/mL or 0.14 nmol PC-epitopes/mL) was preincubated with compound 6, the control peptide TGTKGG, CuOxLDL, or native LDL, added at the concentrations indicated on the graphs, and then tested for binding as described in the experimental section. The highest CuOxLDL concentration tested was 200 μg/mL, which corresponds to approximately 28.3 nmoles of PC-epitopes/mL, as estimated from the previous observation that 1 mole of apoB-100 from CuOxLDL contains 78±15 moles of covalently attached phosphorus^10, which it is assumed are PC-epitopes only. The concentration of native LDL is plotted at equal protein concentration to CuOxLDL (and thus not as molar concentration of PC-epitopes). Each data point represents the mean and SD of 2 independent experiments of triplicate wells.
Each of peptide-phospholipid conjugates 6 and 23-27 were tested as competitors in a CD36 macrophage receptor binding competition assay, where fixed concentrations of CuOxLDL were incubated with the serially diluted competitor and controls in PBS buffer. The IC50 of each competitor is reported below in Table 1, confirming the affinity of the compounds of the invention for the CD36 macrophage receptor:
Binding of biotinylated OxLDL ligands to murine macrophages plated in microtiter wells was assessed by a chemiluminescent binding assay. Isolated human LDL was biotinylated according to manufacturer's protocol (Catalog No. 21326; Pierce Biotechnology). Native and biotinylated native LDL were subjected to copper sulfate oxidation in parallel to prepare unlabelled and biotinylated CuOxLDL ligands, respectively. It has been previously shown that CuOxLDL contains approximately 78 moles of PC-epitopes per mole of apoB-100 (the sole protein on LDL). The biotinylated native LDL and CuOxLDL ligands of equal protein concentration were serially diluted and tested for binding to adherent macrophages. The specificity of the binding of biotinylated CuOxLDL to macrophages was tested in competition experiments, where fixed concentrations of biotinylated CuOxLDL were incubated with the serially diluted competitor and controls in PBS. The ligand-competitor solutions were incubated overnight at 4° C. Murine macrophages from the J774 cell line were cultured in 10% fetal bovine serum in DMEM (DMEM-10) and plated in 100 μL L929-fibroblast conditioned media at 100,000 or 25,000 cells/well, respectively, in sterile 96-well flat-bottom white plates (Greiner Bio-One). The plating media consisted of 20% L929-fibroblast conditioned DMEM-10 and 80% fresh DMEM-10 and served as a source of growth factors, including macrophage colony-stimulating factor. After 72 hours, the plates were washed gently 5 times with PBS using a microtiter plate washer (Dynex Technologies, Chantilly, Va.), and wells were blocked with ice-cold 200 μL DMEM for 30 min, while plates were kept on ice. After washing, macrophages were incubated with ice-cold ligand and ligand-competitor solutions (100 μL/well) for 2 hours on ice, washed again, and fixed with ice-cold 3.7% formaldehyde in PBS for 30 min in the dark. After fixing the macrophages, the remaining part of the assay was carried out at room temperature. Macrophage-bound biotinylated OxLDL ligands were detected with NeutrAvidin-conjugated alkaline phosphatase (Pierce Biotechnology), LumiPhos 530 (Lumigen, Southfield, Mich.), and a Dynex Luminometer (Dynex Technologies). […]

CCCCCCCCCCCCCCCC(=O)OCC(COP(=O)([O-])OCC[N+](C)(C)C)OC(=O)CCCCOCCCC[C@H](NC(=O)[C@H](C)NC(=O)[C@H](C)NC(C)=O)C(=O)N[C@@H](C)C(=O)N[C@@H](Cc1ccc(O)cc1)C(=O)O (stereo partly shown) [Compound 3]
stability [1]: stable
water solubility / solubility in aqueous buffers [2]: poor water solubility

CCCCCCCCCCCCCCCC(=O)OC[C@H](COP(=O)([O-])OCC[N+](C)(C)C)OC(=O)CCCCOCCCC[C@H](NC(=O)[C@@H](NC(=O)CNC(=O)[C@@H](NC(C)=O)[C@@H](C)O)[C@@H](C)O)C(=O)NCC(=O)N[C@@H](Cc1ccc(O)cc1)C(=O)O [Compound 4]
stability [1]: stable
water solubility / solubility in aqueous buffers [2]: poor water solubility

CCCCCCCCCCCCCCCC(=O)OC[C@H](COP(=O)([O-])OCC[N+](C)(C)C)OC(=O)CCCCCCCCC[C@H](NC(=O)[C@@H](NC(=O)CNC(=O)[C@@H](NC(C)=O)[C@@H](C)O)[C@@H](C)O)C(=O)NCC(=O)N[C@@H](Cc1ccc(O)cc1)C(=O)O [Compound 5]
stability [1]: stable
water solubility / solubility in aqueous buffers [2]: poor water solubility

CCCCCCCCCCCCCCCC(=O)OC[C@H](COP(=O)([O-])OCC[N+](C)(C)C)OC(=O)CCCCN(C)CCCC[C@H](NC(=O)[C@@H](NC(=O)CNC(=O)[C@@H](NC(C)=O)[C@@H](C)O)[C@@H](C)O)C(=O)NCC(=O)NCC(=O)O [Compound 6]
stability [1]: stable
affinity for macrophages and T-cells (macrophages and T-cells): showed affinity for macrophages and T-cells
IC50 (CD36 macrophage receptor): 60 µM
competition with biotinylated CuOxLDL binding to macrophages (CD36 macrophage receptor; J774 macrophages, fixed biotinylated CuOxLDL 1.8 pmol apoB/mL (1 μg apoB/mL), FIG. 3B/3C, mean of 2 independent experiments, triplicate wells): more than 99%
water solubility / solubility in aqueous buffers [2]: soluble in aqueous buffers

CCCCCCCCCCCCCCCC(=O)OC[C@H](COP(=O)([O-])OCC[N+](C)(C)C)OC(=O)CCCCN(C)CCCC[C@H](NC(C)=O)C(=O)NCC(=O)NCC(=O)O [Compound 23]
IC50 (CD36 macrophage receptor; competitor serially diluted, fixed concentration of CuOxLDL, PBS buffer, J774 macrophages, read-out: IC50): 38 µM

CCCCCCCCCCCCCCCC(=O)OC[C@H](COP(=O)([O-])OCC[N+](C)(C)C)OC(=O)CCCCN(C)CCCC[C@H](NC(=O)[C@H](C)NC(C)=O)C(=O)NCC(=O)NCC(=O)O [Compound 24]
IC50 (CD36 macrophage receptor): 131 µM

CCCCCCCCCCCCCCCC(=O)OC[C@H](COP(=O)([O-])OCC[N+](C)(C)C)OC(=O)CCCCN(C)CCCC[C@H](NC(=O)[C@@H](NC(C)=O)C(C)C)C(=O)NCC(=O)NCC(=O)O [Compound 25]
IC50 (CD36 macrophage receptor): 55 µM

CCCCCCCCCCCCCCCC(=O)OC[C@H](COP(=O)([O-])OCC[N+](C)(C)C)OC(=O)CCCCN(C)CCCC[C@H](NC(=O)[C@H](Cc1ccccc1)NC(C)=O)C(=O)NCC(=O)NCC(=O)O [Compound 26]
IC50 (CD36 macrophage receptor): 47 µM

CCCCCCCCCCCCCCCC(=O)OC[C@H](COP(=O)([O-])OCC[N+](C)(C)C)OC(=O)CCCCN(C)CCCC[C@H](NC(=O)[C@H](Cc1ccccc1)NC(=O)[C@H](C)NC(C)=O)C(=O)NCC(=O)NCC(=O)O [Compound 27]
IC50 (CD36 macrophage receptor): 47 µM
